The experiment has as its target androgen receptor (UniProt P10275). Briefly: cell-based or functional assay.
Chain of UniProt P10275 (P10275 whole entry): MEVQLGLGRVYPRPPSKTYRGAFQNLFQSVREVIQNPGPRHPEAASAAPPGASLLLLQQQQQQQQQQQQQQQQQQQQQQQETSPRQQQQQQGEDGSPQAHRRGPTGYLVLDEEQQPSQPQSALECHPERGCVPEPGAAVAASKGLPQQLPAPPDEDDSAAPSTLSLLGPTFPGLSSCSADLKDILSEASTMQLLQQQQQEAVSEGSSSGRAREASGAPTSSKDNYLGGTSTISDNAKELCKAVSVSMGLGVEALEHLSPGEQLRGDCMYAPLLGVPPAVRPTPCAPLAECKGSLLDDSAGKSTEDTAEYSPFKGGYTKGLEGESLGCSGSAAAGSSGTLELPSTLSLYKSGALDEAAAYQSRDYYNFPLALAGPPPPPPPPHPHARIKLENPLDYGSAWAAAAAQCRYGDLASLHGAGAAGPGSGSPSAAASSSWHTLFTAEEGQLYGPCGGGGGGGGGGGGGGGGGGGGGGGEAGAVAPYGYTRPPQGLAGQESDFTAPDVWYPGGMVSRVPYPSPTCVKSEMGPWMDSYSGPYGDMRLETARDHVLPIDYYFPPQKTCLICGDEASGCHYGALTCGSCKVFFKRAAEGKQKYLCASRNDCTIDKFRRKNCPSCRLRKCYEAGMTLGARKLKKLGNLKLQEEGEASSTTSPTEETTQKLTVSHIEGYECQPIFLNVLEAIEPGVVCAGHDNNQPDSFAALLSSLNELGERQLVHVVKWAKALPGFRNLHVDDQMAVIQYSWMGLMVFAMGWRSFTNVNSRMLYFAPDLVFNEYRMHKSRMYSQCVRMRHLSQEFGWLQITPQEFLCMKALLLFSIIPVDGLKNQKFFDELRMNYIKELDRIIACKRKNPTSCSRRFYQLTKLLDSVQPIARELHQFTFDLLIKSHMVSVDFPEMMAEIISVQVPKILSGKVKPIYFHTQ

As for “androgen receptor complex-associated protein (from UniProt Q58WW2 1-860)”, the luciferase activity, AFP promoter (androgen responsive element) reporter in G2 cells, relative to the control reporter with mutated ARE lay in the range of 3 to 4 fold.

The values above are taken from patent US20050272099A1.
